{"source": "paper PMC2851732", "about": "(2010)", "key": {"[1]": {"biological_target": "T1, DV2 sE(1–395), postfusion trimer (dengue virus type 2, UniProt P12823)", "assay": "FP"}, "[2]": {"biological_target": "T1, DV2 sE(1–395), postfusion trimer", "assay": "FP", "remark": "listed apart in the source"}}, "note": "Like-named read-outs stand apart in the source and are kept apart here. Ends that are not written are not given here. * marks the point of attachment. FITC = O=C1OC2(c3ccc(O)cc3Oc3cc(O)ccc32)c2ccc(NC(=S)*)cc21; βAla = NCCC(=O)O"}
{"binder": "AILGDTAWDFGSLGGVFTSIGKALHQVFGAIYGAA", "note": "[stem peptide DV2^413–447]", "values": [{"measurement": "Kd", "setting": "[1]", "result": 275, "unit": "nM"}]}
{"binder": "{FITC-βAla}-AWDFGSLGGVFTSIGKALHQVF", "note": "[FITC-conjugated stem peptide DV2^419–440]", "values": [{"measurement": "Kd", "setting": "[2]", "result": 250, "unit": "nM"}]}
{"binder": "{FITC-βAla}-AWDFGSLGGVFTSIGKALHQVFGAIYGAA", "note": "[FITC-conjugated stem peptide DV2^419–447]", "values": [{"measurement": "Kd", "setting": "[2]", "result": 125, "unit": "nM"}]}
